According to PMC8831596, “Structures of highly flexible intracellular domain of human α7 nicotinic acetylcholine receptor” (Nature Communications, 2022):

B1: human α7 nicotinic acetylcholine receptor TMD + ICD construct (L209-V472) (domain or fragment, UniProt P36544 231-494, looked up)
chain: LYYGLNLLIPCVLISALALLVFLLPADSGEKISLGITVLLSLTVFMLLVAEIMPATSDSVPLIAQYFASTMIIVGLSVVVTVIVLQYHHHDPDGGKMPKWTRVILLNWCAWFLRMKRPGEDKVRPACQHKQRRCSLASVEMSAVAPPPASNGNLLYIGFRGLDGVHCVPTPDSGVVCGRMACSPTHDEHLLHGGQPPEGDPDLAKILEEVRYIANRFRCQDESEAVCSEWKFAACVVDRLCLMAFSVFTIICTIGILMSAPNFV
notes: human α7 nicotinic acetylcholine receptor, transmembrane domain plus intracellular domain, 264 residues L209-V472; Single-cysteine, spin-labelled and isotope-labelled versions gave the NMR and ESR restraints for the structure; also called α7nAChR TMD + ICD; source: E. coli Rosetta 2(DE3) pLysS, purified (NiNTA, SEC; pentamer fraction, in DPC or LDAO)
B2: human α7 nicotinic acetylcholine receptor TMD+ICD construct used for NMR (domain or fragment)
chain: SNAEEELYYGLNLLIPCVLISALALLVFLLPADSGEKISLGITVLLSLTVFMLLVAEIMPSTSDSSPSIAQYFASTMIIVGLSVVVTVIVLQYHHHDPDGGKMPKWTRVILLNWCAWFLRMKRPGEDKVRPACQHKQRRCSLASVEMSAVAPPPASNGNLLYIGFRGLDGVHCVPTPDSGVVCGRMACSPTHDEHLLHGGQPPEGDPDLAKILEEVRYIANRFRCQDESEAVCSEWKFAACVVDRLCLMAFSVFTIICTIGILMSAPNFVEE
notes: also called α7nAChR(TMD+ICD)NMR; α7nAChR TMD-ICD; source: E. coli Rosetta 2(DE3) pLysS, purified (NiNTA, SEC)
B3: α7nAChR TMD+ICD C219, single-cysteine construct labelled with MTSL (domain or fragment)
chain: B2 chain
modifications: MTSL on C219
B4: PDZ domain of the intracellular scaffold protein PICK1 (domain or fragment, UniProt Q9NRD5 22-105, looked up)
chain: KVTLQKDAQNLIGISIGGGAQYCPCLYIVQVFDNTPAALDGTVAAGDEITGVNGRSIKGKTKVEVAKMIQEVKGEVTIHYNKLQ
notes: PICK1, PDZ domain; also called PICK1 PDZ domain

Key:
[1] = biological target: the molecule itself; test: not stated; result shown in Supplementary Fig. 2 (not shown); the methods tell only that the pentamer fraction was isolated by SEC (S200 10/300, 20 mM HEPES pH 7.4, 300 mM NaCl, 0.2% DPC or 0.1% LDAO)
[2] = biological target: the molecule itself; test: SEC; Superdex 200 10/300 Increase GL, 10 mM sodium acetate pH 4.8, 100 mM NaCl, 0.05% LDAO; elution peak at 12.6 ml
[3] = biological target: B4; test: SPR; steady state; α7nAChR immobilised on an NTA sensor chip (1000-2000 RU), PICK1 PDZ domain flowed at 30 μl/min, 25 °C, Biacore 3000; receptor in 0.05% DDM; apparent dissociation constants, Langmuir isotherm, n=3; settings: both partners purified
[4] = biological target: B4; test: SPR; steady state; α7nAChR immobilised on an NTA sensor chip (1000-2000 RU), PICK1 PDZ domain flowed at 30 μl/min, 25 °C, Biacore 3000; receptor in 0.05% LDAO; apparent dissociation constants, Langmuir isotherm, n=3; settings: both partners purified
[5] = biological target: the molecule itself; test: DEER ESR; MTSL-labelled TMD+ICD C219 in LDAO micelles; non-adjacent/adjacent distance ratio ~1.6
[6] = biological target: T1, full-length human α7 nicotinic acetylcholine receptor (human, UniProt P36544 23-502); test: SPR; steady state; α7nAChR immobilised on an NTA sensor chip (1000-2000 RU), PICK1 PDZ domain flowed at 30 μl/min, 25 °C, Biacore 3000; receptor in 0.05% DDM; apparent dissociation constants, Langmuir isotherm, n=3; settings: both partners purified
T1 construct: human α7 nicotinic acetylcholine receptor, UniProtKB P36544 ACHA7_HUMAN, full length; also called α7nAChR; full length α7nAChR; source: E. coli Rosetta 2(DE3) pLysS, purified (NiNTA, SEC)

[7] = biological target: T1, full-length human α7 nicotinic …; test: SPR; steady state; α7nAChR immobilised on an NTA sensor chip (1000-2000 RU), PICK1 PDZ domain flowed at 30 μl/min, 25 °C, Biacore 3000; receptor in 0.05% LDAO; apparent dissociation constants, Langmuir isotherm, n=3; settings: both partners purified

T1 sequence (P36544 23-502): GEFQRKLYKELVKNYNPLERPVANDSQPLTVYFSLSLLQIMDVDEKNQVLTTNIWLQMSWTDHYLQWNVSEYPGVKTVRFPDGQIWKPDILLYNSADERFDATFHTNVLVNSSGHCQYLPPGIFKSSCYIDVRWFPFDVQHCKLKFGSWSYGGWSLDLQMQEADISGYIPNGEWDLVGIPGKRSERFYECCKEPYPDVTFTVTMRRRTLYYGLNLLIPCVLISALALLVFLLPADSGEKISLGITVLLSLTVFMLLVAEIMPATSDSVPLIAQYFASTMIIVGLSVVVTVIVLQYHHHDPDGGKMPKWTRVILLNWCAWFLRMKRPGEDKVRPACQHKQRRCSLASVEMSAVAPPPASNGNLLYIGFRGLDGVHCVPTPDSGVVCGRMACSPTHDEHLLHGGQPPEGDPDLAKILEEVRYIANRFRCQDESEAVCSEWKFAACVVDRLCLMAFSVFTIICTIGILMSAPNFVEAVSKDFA

**Q.** B1 was tested. Which “stoichiometry N” value [1] did it give?
**A.** Its value is 5.

**Q.** Which results are given for B2?
**A.** stoichiometry N [2]: 5; Kd [3]: 4.2 µM; Kd [4]: 4 µM

**Q.** Which “stoichiometry N” value [5] does the source give for B3 here?
**A.** The value was 5.

**Q.** With B4 as the binder, how does the Kd [6] read?
**A.** Its Kd is 3.3 µM.

**Q.** What about the Kd [7] of the same binder?
**A.** Its Kd is 3.1 µM.
